Reference: patent publication US8058396B2, “Cystatin C as an antagonist of TGF-β and methods related thereto” (National Jewish Health, priority 2003, dated 2011)

B1: Δ14CystC: human CystC with deletion of positions 80 to 93 (conserved cysteine proteinase inhibitor motif), retrovirally expressed and secreted (protein)
chain: MAGPLRAPLLLLAILAVALAVSPAAGSSPGKPPRLVGGPMDASVEEEGVRRALDFAVGEYNKASNDMYHSRALQVVRARLGRTTCTKTQPNLDNCPFHDQPHLKRKAFCSFQIYAVPWQGTMTLSKSTCQDA
modifications: left off: small tags and cut ends
B2: CystC: full-length human Cystatin C (SEQ ID NO:2), C-terminally Myc- and (His)6-tagged, retrovirally expressed and secreted by the cells (protein, listed as Homo sapiens)
chain: MAGPLRAPLLLLAILAVALAVSPAAGSSPGKPPRLVGGPMDASVEEEGVRRALDFAVGEYNKASNDMYHSRALQVVRARKQIVAGVNYFLDVELGRTTCTKTQPNLDNCPFHDQPHLKRKAFCSFQIYAVPWQGTMTLSKSTCQDA
modifications: C-terminal Myc and His6 tags

What was measured:
NRK kidney fibroblasts = experiment: NRK cell invasion through Matrigel matrices; type: cell-based, rat; conditions: expression in NRK cells, 48 hours, p<0.05; for TGF-β-stimulated NRK cell invasion through synthetic basement membranes: TGF-β1 5 ng/ml
Procedure: This hypothesis was tested by infecting NRK cells with bicistronic retrovirus encoding either CystC or Δ14CystC to determine their effects on NRK anchorage-independent growth stimulated by TGF-β. Briefly, rat NRK kidney fibroblasts were infected with control (i.e., pMSCV-IRES-GFP), CystC, or Δ14CystC retroviral supernatants, and the resulting infected cells were isolated by GFP fluorescence on a MoFlo cell sorter 48 hours later. Control, CystC-, and Δ14CystC-expressing NRK cells were cultured in soft-agar in the absence or presence of TGF-β1 (5 ng/ml) for 7 d, whereupon NRK colony formation was quantified by light microscopy. In addition, control, CystC-, and Δ14CystC-expressing NRK cells were allowed to invade through Matrigel matrices in the absence or presence of TGF-β1 (5 ng/ml) for 48 hours.

[1] = tested on: NMuMG mammary epithelial cells; experiment: TGF-β-mediated downregulation of E-cadherin in NMuMG cells; type: cell-based, murine; conditions: overexpression in NMuMG cells; TGF-β1 5 ng/ml, 36 hours
Procedure: (§1) The ability of TGF-β to alter actin cytoskeletal architecture and E-cadherin expression was monitored essentially as described (Piek et al., 1999). Briefly, control-, CystC-, or Δ14CystC-expressing NMuMG cells were allowed to adhere overnight to glass coverslips in 24-well plates (50,000 cells/well). The cells were stimulated the following day with TGF-β1 (5 ng/ml) for 0-36 hours at 37° C. In some experiments, control NMuMG cells were stimulated with TGF-β1 in the absence or presence of 10 μg/ml of recombinant GST, GST-CystC, or GST-Δ14CystC. Upon completion of agonist stimulation, the cells were washed in ice-cold PBS and immediately fixed in 3.7% formaldehyde. After extensive washing in PBS, the cells were blocked in PBS supplemented with 1.5% FBS, followed by incubation with rhodamine-phalloidin (0.25 μM). […]
The ability of TGF-β to alter E-cadherin expression also was monitored by immunoprecipitating E-cadherin from Buffer H/1% Triton X-100-solubilized (Schiemann et al., 2003) NMuMG whole cell extracts, followed by immunoblotting with anti-E-cadherin antibodies (1:1000 dilution).
(§2) To test this hypothesis, the inventor first examined whether CystC and a CystC mutant impaired in its ability to inhibit cathepsin protease activity (i.e., Δ14CystC) could antagonize TGF-β stimulation of EMT in MECs. […] TGF-β stimulation of EMT is studied routinely in murine NMuMG MECs, which readily undergo EMT when treated with TGF-β (Piek et al., 1999; Miettinen et al., 1994; Gotzmann et al., 2004). […] E-cadherin expression was monitored by indirect immunofluorescence with anti-E-cadherin antibodies.
In another experiment, NMuMG cells were infected with ecotropic retrovirus encoding either GFP (i.e., control), CystC, or Δ14CystC, and subsequently were isolated by FACS-sorting for GFP expression to yield stable polyclonal populations of control, CystC, and Δ14CystC-expressing cells. The expression and secretion of recombinant CystC proteins by infected NMuMG and NRK cells was monitored by immunoblotting conditioned-media with anti-CystC antibodies. […]

HT1080 cells = experiment: Migration of HT1080 cells to fibronectin; type: cell-based, human; conditions: overexpression in HT1080 cells; data not shown
[2] = tested on: NMuMG mammary epithelial cells; experiment: TGF-β-stimulated actin cytoskeletal reorganization (EMT) in NMuMG cells, rhodamine-phalloidin immunofluorescence; type: cell-based, murine; conditions: overexpression in NMuMG cells; TGF-β1 5 ng/ml, 8 hours
Procedure: as §1, §2
In another experiment, NMuMG cells were infected with ecotropic retrovirus encoding either GFP (i.e., control), CystC, or Δ14CystC, and subsequently were isolated by FACS-sorting for GFP expression to yield stable polyclonal populations of control, CystC, and Δ14CystC-expressing cells. The expression and secretion of recombinant CystC proteins by infected NMuMG and NRK cells was monitored by immunoblotting conditioned-media with anti-CystC antibodies. […] Next, the control, CystC-, and Δ14CystC-expressing NMuMG cells were incubated in the absence or presence of TGF-β1 (5 ng/ml) for 36 hours, whereupon E-cadherin expression was monitored by immunoblotting with anti-E-Cadherin antibodies. […]

cathepsin B = cathepsin B (Homo sapiens, UniProt P07858); conditions: mutant lacks the cysteine inhibitor motif; reference 23; cited from earlier work
TGF-β1 = TGF-β1 (Homo sapiens, UniProt P01137); experiment: Co-immunoprecipitation and affinity pull-down of CystC with TGF-β1; type: binding; conditions: data not shown
Sequence of TGF-β1 (P01137 279-390 limits assumed, species assumed): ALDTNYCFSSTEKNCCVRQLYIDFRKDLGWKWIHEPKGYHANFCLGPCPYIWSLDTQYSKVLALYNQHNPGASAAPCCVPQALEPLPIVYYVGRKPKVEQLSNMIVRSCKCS

3T3-L1 cells [3] = experiment: Migration of 3T3-L1 cells to fibronectin; type: cell-based, murine; conditions: data not shown
3T3-L1 cells [4] = experiment: DNA synthesis in 3T3-L1 cells; type: cell-based, murine; conditions: data not shown

Molecule | TGF-β-stimulated NRK cell invasion through synthetic basement membranes (NRK kidney fibroblasts) | TGF-β-mediated downregulation of E-cadherin [1] | migration of HT1080 cells to fibronectin (HT1080 cells) | actin cytoskeletal reorganization stimulated by TGF-β [2] | inactivation of cathepsin B (cathepsin B) | tonic NRK cell invasion (NRK kidney fibroblasts) | direct physical interaction with TGF-β1 (TGF-β1) | 3T3-L1 cell migration to fibronectin (3T3-L1 cells [3]) | 3T3-L1 cell DNA synthesis (3T3-L1 cells [4])
B1 | inhibited significantly | antagonized | failed to effect | prevented | unable to inactivate | – | – | – | –
B2 | inhibited significantly | antagonized | failed to effect | prevented | – | inhibited significantly | failed to demonstrate a direct physical interaction | failed to effect | failed to effect
